Measured values published in the supplement of paper PMC10567573.

B1: TRIM9 (parent)
chain: PRNSCITCPQCHRSLILDDRGLRG
B2: ZNF232 (parent)
chain: GKAYGWCSELIRHRRVHARKEPSH

Variants of: B1
Experiment: protein stability index of a GFP-peptide fusion (GPS, HEK-293T) (PSI 1-6); higher = more stable
Conditions: c terminus: a fixed tail appended
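Further: lentivirally expressed fusions sorted by FACS into six bins by GFP to DsRed ratio, PSI derived from sequencing read proportions per bin multiplied by bin number.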

Protein stability index: each site, then its substitutions
L17: R 2.48; K 2.1
C5: V 2.8; E 2.67; A 1.67; G 2.75
P9: L 2.12; D 2.05; C 2.45
H12: D 2.28; N 2.16; A 2.53; S 2.04
L15: D 2.51; F 3.08
N3: R 2.03; D 2.34; F 1.96
R23: I 2.08; Y 1.63; S 2.1
G24: W 1.76; L 1.81; E 2.6
I16: G 1.76; K 2.68; V 2.28; E 3.16; P 2.42; L 2.38
C11: R 2.71; V 2.2; A 2.29
R20: E 2.7; I 1.85
S4: G 1.76; M 2.89; H 2.14
G21: F 1.88; A 1.93
I6: D 2.15; A 1.48
D18: S 2.3; M 2.57; G 2.36; K 2.24
D19: V 1.4; R 1.84; G 1.58
R2: M 2.16; L 2.24; C 1.74
S14: A 2.18; G 1.26
P1: Q 1.83; V 2.46
L22: M 2.69
T7: C 2.05
R13: Y 2.53

Variants of: B2
Experiment: as above
Conditions: c terminus: a fixed tail appended

Protein stability index of substitutions, site by site:
G1: A 2.89; C 2.73; D 3.43; E 3.39; F 2.79; H 2.75; I 2.72; K 2.75; L 2.85; M 2.55; N 3.14; P 3.44; Q 3.28; R 2.87; S 3.08; T 3.35; V 2.45; W 1.97; Y 2.37
K2: A 3.3; C 2.41; D 3.2; E 2.82; F 2.62; G 3.54; H 3.01; I 2.72; L 2.61; M 2.55; N 2.62; P 3.44; Q 3.26; R 2.79; S 2.84; T 3.12; V 2.79; W 1.85; Y 3.5
A3: C 2.89; D 3.39; E 3.04; F 2.73; G 3; H 2.69; I 2.35; K 3.1; L 2.29; M 2.77; N 3.12; P 2.81; Q 2.95; R 2.92; S 3.46; T 3.02; V 2.97; W 2.48; Y 2.53
Y4: A 3.54; C 2.2; D 4.04; E 3.62; F 2.84; G 3.77; H 3.63; I 3.06; K 3.62; L 2.76; M 3.07; N 3.83; P 4.12; Q 3.75; R 3.6; S 4.18; T 3.19; V 3.04; W 2.62
G5: A 3.55; C 1.59; D 2.92; E 2.89; F 2.5; H 3.04; I 2.29; K 2.95; L 1.72; M 2.94; N 3.56; P 3.25; Q 3.09; R 2.9; S 2.99; T 2.79; V 2.22; W 2.14; Y 2.13
W6: A 3.49; C 2.6; D 4.05; E 3.35; F 3.65; G 3.96; H 3.67; I 3.27; K 4.02; L 2.95; M 3.82; N 3.98; P 4.61; Q 3.81; R 3.7; S 3.65; T 3.69; V 3.59; Y 2.95
C7: A 3.3; D 3.42; E 3.67; F 2.42; G 3.89; H 3.37; I 2.17; K 3.54; L 2.34; M 2.62; N 4.19; P 3.61; Q 3.18; R 3.59; S 3.82; T 3.26; V 2.06; W 3.05; Y 2.57
S8: A 2.67; C 2.14; D 3.22; E 3.2; F 1.97; G 2.5; H 2.69; I 1.57; K 2.6; L 2.45; M 1.94; N 3.21; P 3.21; Q 3.36; R 2.99; T 3.25; V 2.02; W 1.97; Y 2.34
E9: A 2.74; C 1.76; D 3.12; F 1.59; G 3.03; H 3.25; I 2.51; K 2.96; L 2.73; M 1.66; N 2.84; P 3.24; Q 2.64; R 2.83; S 3.02; T 3.53; V 1.21; W 1.81; Y 2.18
L10: A 3.08; C 2.15; D 3.5; E 2.84; F 2.6; G 3.55; H 3.64; I 2.84; K 3.08; M 3.43; N 3.54; P 3.8; Q 2.78; R 3.35; S 3.4; T 3.16; V 3.54; W 2.77; Y 2.22
I11: A 3.41; C 3.37; D 3.9; E 3.43; F 2.79; G 3.35; H 3.31; K 3.16; L 2.61; M 3.18; N 3.02; P 3.11; Q 4.02; R 3.67; S 3.8; T 3.34; V 2.92; W 2.79; Y 2.9
R12: A 2.82; C 2.57; D 3.03; E 3.54; F 2.41; G 2.92; H 3.24; I 2.22; K 3.17; L 2.65; M 2.25; N 3.36; P 3.21; Q 3.02; S 3.16; T 3.1; V 2.31; W 2.14; Y 2.32
H13: A 2.62; C 2.39; D 2.99; E 3.42; F 1.94; G 3.46; I 1.89; K 3.29; L 1.97; M 2.36; N 2.69; P 2.75; Q 3.22; R 3.53; S 2.57; T 3.16; V 2.1; W 3.04; Y 2.24
R14: A 2.9; C 1.86; D 2.65; E 2.86; F 2.33; G 2.72; H 2.77; I 2.04; K 2.61; L 2.03; M 1.73; N 3.23; P 2.95; Q 3.08; S 2.27; T 2.62; V 2.45; W 1.94; Y 2.05
R15: A 2.81; C 1.99; D 2.61; E 3.28; F 2.45; G 2.61; H 2.92; I 2.56; K 3
